Measured values reported in patent KR20150000795A.

Biological target: c-Met on MKN45 gastric cancer cells / Caki-1 kidney cancer cells (human) (UniProt P08581)
Assay: cell-based or functional assay

Chain of UniProt P08581 (P08581 25-1390): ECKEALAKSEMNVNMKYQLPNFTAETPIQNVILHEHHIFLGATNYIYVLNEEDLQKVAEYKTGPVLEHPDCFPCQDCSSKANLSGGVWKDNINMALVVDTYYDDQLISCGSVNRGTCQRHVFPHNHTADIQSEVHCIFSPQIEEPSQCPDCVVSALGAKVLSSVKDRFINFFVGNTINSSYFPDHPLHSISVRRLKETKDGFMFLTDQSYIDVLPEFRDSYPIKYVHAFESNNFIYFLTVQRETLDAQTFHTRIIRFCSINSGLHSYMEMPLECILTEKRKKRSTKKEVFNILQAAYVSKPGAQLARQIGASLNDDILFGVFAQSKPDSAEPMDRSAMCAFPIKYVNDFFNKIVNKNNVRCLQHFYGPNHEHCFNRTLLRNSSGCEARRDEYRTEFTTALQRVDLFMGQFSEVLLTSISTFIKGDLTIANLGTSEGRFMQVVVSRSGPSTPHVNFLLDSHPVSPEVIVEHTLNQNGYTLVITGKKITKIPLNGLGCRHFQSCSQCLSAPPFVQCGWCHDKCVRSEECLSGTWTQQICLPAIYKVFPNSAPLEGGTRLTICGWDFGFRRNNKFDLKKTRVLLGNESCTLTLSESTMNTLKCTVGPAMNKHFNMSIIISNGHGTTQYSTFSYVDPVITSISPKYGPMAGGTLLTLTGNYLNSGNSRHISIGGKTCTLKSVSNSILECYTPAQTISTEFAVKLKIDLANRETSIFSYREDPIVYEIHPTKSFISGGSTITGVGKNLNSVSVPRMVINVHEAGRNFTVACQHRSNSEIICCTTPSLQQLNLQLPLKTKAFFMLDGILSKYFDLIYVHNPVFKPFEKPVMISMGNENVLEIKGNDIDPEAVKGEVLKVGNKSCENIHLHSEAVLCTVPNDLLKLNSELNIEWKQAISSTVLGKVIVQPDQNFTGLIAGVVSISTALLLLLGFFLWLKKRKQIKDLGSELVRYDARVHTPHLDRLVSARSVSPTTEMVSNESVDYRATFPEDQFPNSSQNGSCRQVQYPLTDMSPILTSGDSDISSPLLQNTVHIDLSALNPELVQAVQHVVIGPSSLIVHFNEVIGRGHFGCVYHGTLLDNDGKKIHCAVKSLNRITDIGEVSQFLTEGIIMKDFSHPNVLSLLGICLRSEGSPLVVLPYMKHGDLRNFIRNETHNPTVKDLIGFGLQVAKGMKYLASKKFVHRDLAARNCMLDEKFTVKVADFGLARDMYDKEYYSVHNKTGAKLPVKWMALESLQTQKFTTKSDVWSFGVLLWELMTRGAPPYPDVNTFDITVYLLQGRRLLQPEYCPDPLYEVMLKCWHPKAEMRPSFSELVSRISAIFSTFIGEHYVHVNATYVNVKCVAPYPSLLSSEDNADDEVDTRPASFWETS

Akt phosphorylation (Ser473), phospho-AKT1 sandwich ELISA, Caki-1 cells (reference set to 100%): 100%
Substance: 5D5 (antibody)
